For this test, the target named is exportin 4 (XPO4) (UniProt Q9C0E2 1-1151). In words: SPR. Background: SPR reads the build-up and loss of mass on a sensor chip optically.

One may read the Kd as the equilibrium constant for the complex coming apart. High values mean lower affinity, low ones higher affinity.

Sequence of exportin 4 (XPO4) (Q9C0E2 whole entry): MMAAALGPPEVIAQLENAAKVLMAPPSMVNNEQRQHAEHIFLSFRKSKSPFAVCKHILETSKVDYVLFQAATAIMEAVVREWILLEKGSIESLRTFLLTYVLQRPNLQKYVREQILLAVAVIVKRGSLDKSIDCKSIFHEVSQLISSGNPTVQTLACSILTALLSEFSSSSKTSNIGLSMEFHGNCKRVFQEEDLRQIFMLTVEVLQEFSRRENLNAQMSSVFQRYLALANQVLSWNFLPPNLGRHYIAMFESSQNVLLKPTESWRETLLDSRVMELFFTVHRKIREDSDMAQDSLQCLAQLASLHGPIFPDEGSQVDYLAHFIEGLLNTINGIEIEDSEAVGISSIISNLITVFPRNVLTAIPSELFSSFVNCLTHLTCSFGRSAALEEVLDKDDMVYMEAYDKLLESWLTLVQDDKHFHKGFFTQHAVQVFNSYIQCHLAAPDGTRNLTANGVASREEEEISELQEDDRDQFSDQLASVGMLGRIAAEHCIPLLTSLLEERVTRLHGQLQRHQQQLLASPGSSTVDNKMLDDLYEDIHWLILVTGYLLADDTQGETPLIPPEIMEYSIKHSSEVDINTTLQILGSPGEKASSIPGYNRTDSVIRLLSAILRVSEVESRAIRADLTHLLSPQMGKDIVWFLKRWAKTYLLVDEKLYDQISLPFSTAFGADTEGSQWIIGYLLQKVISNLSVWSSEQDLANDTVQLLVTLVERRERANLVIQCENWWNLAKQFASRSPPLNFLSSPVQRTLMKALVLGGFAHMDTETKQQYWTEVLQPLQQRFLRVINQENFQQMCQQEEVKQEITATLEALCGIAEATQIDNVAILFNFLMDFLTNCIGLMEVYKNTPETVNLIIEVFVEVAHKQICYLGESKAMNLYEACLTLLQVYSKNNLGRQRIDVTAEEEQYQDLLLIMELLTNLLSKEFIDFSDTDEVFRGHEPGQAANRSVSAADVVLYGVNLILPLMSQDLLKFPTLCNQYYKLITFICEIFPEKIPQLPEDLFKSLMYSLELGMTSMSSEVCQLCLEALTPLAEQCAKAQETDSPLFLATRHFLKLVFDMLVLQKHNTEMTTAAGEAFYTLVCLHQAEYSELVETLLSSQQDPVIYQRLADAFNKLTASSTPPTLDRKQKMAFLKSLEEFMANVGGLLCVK

B1: SMAD3 (natural protein, UniProt P84022 1-425, looked up)
chain: MSSILPFTPPIVKRLLGWKKGEQNGQEEKWCEKAVKSLVKKLKKTGQLDELEKAITTQNVNTKCITIPRSLDGRLQVSHRKGLPHVIYCRLWRWPDLHSHHELRAMELCEFAFNMKKDEVCVNPYHYQRVETPVLPPVLVPRHTEIPAEFPPLDDYSHSIPENTNFPAGIEPQSNIPETPPPGYLSEDGETSDHQMNHSMDAGSPNLSPNPMSPAHNNLDLQPVTYCEPAFWCSISYYELNQRVGETFHASQPSMTVDGFTDPSNSERFCLGLLSNVNRNAAVELTRRHIGRGVRLYYIGGEVFAECLSDSAIFVQSPNCNQRYGWHPATVCKIPPGCNLKIFNNQEFAALLAQSVNQGFEAVYQLTRMCTIRMSFVKGWGAEYRRQTVTSTPCWIELHLNGPLQWLDKVLTQMGSPSIRCSSVS
Regarding B1, the Kd was found to be 4.88 nM.

Values taken from publication PMC8365315 (EBioMedicine, 2021).
